Experimental data taken from patent US20230203559A1, “METHOD FOR QUANTIFYING ETHANOLAMINE PHOSPHATE, OXIDOREDUCTASE FOR QUANTIFICATION, QUANTIFICATION COMPOSITION, QUANTIFICATION KIT, SENSOR CHIP, AND SENSOR” (KIKKOMAN CORPORATION, priority 2020, published 2023).

Columns and labels:
[1] = Measurement of EAP combined with ALP and LrHP in plasma model solution containing contaminating amines; type: biochemical
Experimental: The reaction reagent (pH 8.0) shown in Table 2 was mixed in a 1.5 ml microtube at 4° C. and incubated at 37° C. for 2 minutes. In this case, 47 μl of LrHP was added (so that the final concentration is 1 mg/ml). […] The measurement was paused, 10 μl of alkaline phosphatase (25 U/ml) was added to the cuvette, mixed by pipetting, and immediately set in a spectrophotometer, and the absorbance at 555 nm was measured over time for 500 seconds.

[2] = Verification of EAP to EA conversion reaction by ALP, detected with LrHP (4-AA/TOOS/POD, absorbance at 555 nm); type: biochemical; details: 1 mM EAP, LrHP final 25 pg/ml, pH 8.0, 300 seconds
Experimental: A reagent for activity measurement of the following composition was prepared.
A sample containing 1 mM EA was mixed with the reaction reagent (pH 8.0) shown in Table 2 in a 1.5 ml microtube at 4° C. 2 μl of ALP (so that the final concentration is 5 U/ml) was added thereto and incubated at 37° C. for 5 minutes. 20 μl of LrHP (so that the final concentration is 25 pg/ml) was added thereto, mixed by pipetting, transferred to a cuvette, and immediately set in a spectrophotometer (U-3900, manufactured by Hitachi High-Tech Science Corporation), and the absorbance at 555 nm was measured over time for 300 seconds.
Similarly, a sample containing 1 mM EAP was used, and 2 μl of alkaline phosphatase (ALP) or water was added to the reaction reagent (pH 8.0) (so that the final concentration is 5 U/ml) and incubated at 37° C. for 5 minutes. Next, 20 μl of LrHP (so that the final concentration is 25 pg/ml) was added thereto, mixed by pipetting, transferred to a cuvette, and immediately set in a spectrophotometer, and the absorbance at 555 nm was measured over time for 300 seconds.
The time immediately after the addition of LrHP is set to 0 seconds from the start of the measurement. […] This linear increase in absorbance was similar to the tendency to increase in the case where EA was directly used as a substrate instead of acting phosphatase on EAP.

B1: LrHP: hypothetical protein (GenBank ID CDS02610.1), amino acid sequence SEQ ID NO: 11, derived from Lichtheimia ramosa; oxidase acting on EA (protein, listed as Lichtheimia ramosa)
chain: MSSSPIKPYPLDPLTADEIRRAAALIRETRGQDTTYVFNSLTLKEPSKQQMMSYLGWTNSPSHPKPVTIDREVFAVLIDRPSGLVHEMTVNLDKNQVTRWNKVEGRQPTVNVFEMLEAEREILKDERVKEQCRQLGINDMSMVFADPWGVGYHEIKGKRLVQALMYARTSPDDNQYAHPLDFNPLYDVNAKKVIDIIVSKRRNSSFDRPVIPMANHHFLPEHLGQDRLRKDIKPIEITQPQGVSFSIRDGHQLHWQKWDMHLSFNYREGLVINNLSYRDMDGTVRPIIYRMSLSEMVVPYANPYKPYNHKMAFDVGEYGLGNLTNSLELGCDCVGKICYLDATLSDLNGDPWQIPNAICIHEEDTGLLFKHTDYRTGKAHSARSRRLVISHIVTAANYDYGLYYYFYQDGTIQYEVKATGELNTQVLAADEDAAPYGTIVAPQVDAQHHQHLFSMRIDPMVDGPNNSVAEVDVVASDLPVGHPHNSIGNSFYPVTKVFNTTDEAKTMASIERHRSWKIINENKIHPYAKQPVGFKMMAHPTPPLLPKPGSIVYERAMFASKTLWVTPYNEEQRYPGGFYCYQSEPSENLGLPQWTKETQNVRDTDIVCWLNFGITHIPRVEDFPIMPIETCGVMLKPVNFFLGNPGIDIPPSTRQSTKSAYATEATCCRKNNL
elimination of EA in the sample ([1]; LrHP final 1 mg/ml, EA 10.4 μM, β-alanine 29 μM, taurine 39.5 μM, EAP 1.5 μM, after 500 seconds): the EA in the sample was exhausted | change in absorbance at 555 nm after 500 seconds ([1]; water added instead of ALP, final EAP 1.5 μM): No change in absorbance occurred | change in absorbance at 555 nm (EAP oxidization activity) ([2]; ALP added (final 5 U/ml, 37° C., 5 minutes)): increase in absorbance with time was observed | change in absorbance at 555 nm (EAP oxidization activity) ([2]; ALP not added): no change in absorbance was observed
